This is an account of results in patent publication US20250011363A1, “OPTIMIZED SHORTENED PEPTIDE THAT BINDS TO ACETYLCHOLINE RECEPTOR, AND USE THEREOF” (SKINMED CO., LTD., priority 2021, published 2025).

In assay [1] the target is acetylcholine receptor. The assay can be described thus: SPR, receptor on CM5 chip, peptide 10 µM. For orientation: Surface plasmon resonance follows binding to a sensor surface in real time, without labels.
Assay [2] addresses acetylcholine receptor. The assay can be described thus: SPR, AchR immobilised on chip, peptide at 10 uM.

In the case of KRQLLK [6mer-1-110], the Binding affinity (RU) with acetylcholine receptor [1] stood at 121 RU.
The same measure, in the same setting: in the case of KRLFTR [6mer-1-117] it was 142 RU.
In the assay with acetylcholine receptor [1], RKLQLR [6mer-1-118] yielded a Binding affinity (RU) of 127 RU.
Still for that read-out and setting: in the case of RKVICR [6mer-1-111] it was 144 RU.
Turning to RWLCR [5mer-592], in the assay with acetylcholine receptor [2], the Binding affinity (RU) amounted to 56 RU.
In the assay with acetylcholine receptor [1], KRVQQR [6mer-1-80] displayed a Binding affinity (RU) of 133 RU.
Still for that read-out and setting: in the case of RRLQLK [6mer-1-76] it was 126 RU.
The molecule KLVCK [5mer-292] gave a Binding affinity (RU) with acetylcholine receptor [2] of 59 RU.
Turning to KRWLYR [6mer-1-101], the Binding affinity (RU) with acetylcholine receptor [1] stood at 142 RU.
Same read-out and setting: with RRRYRR [6mer-1-102] the figure was 127 RU; with KRWFYK [6mer-1-71], 121 RU; with RRSLSR [6mer-1-115], 133 RU.
On the same count and under the same terms, in the case of KKVLYR [6mer-1-82] it was 123 RU; in that of RKVQLK [6mer-1-72], 139 RU.
Same read-out and setting: in the case of KRLQCR [6mer-1-98] it was 154 RU.
Take KLVSR [5mer-597]: the Binding affinity (RU) with acetylcholine receptor [2] came out at 68 RU.
In the assay with acetylcholine receptor [1], KKQLRR [6mer-1-77] gave a Binding affinity (RU) of 149 RU.
Still for that read-out and setting: in the case of RRGQTK [6mer-1-84] it was 142 RU; in that of KKWQTK [6mer-1-95], 142 RU.
KWISK [5mer-296]: the Binding affinity (RU) with acetylcholine receptor [2] is 55 RU.
Same read-out and setting: in the case of RVRSK [5mer-598] it was 84 RU.
The same measure, in the same setting: in the case of RGRCR [5mer-295] it was 52 RU.
KKGISK [6mer-1-90] returned a Binding affinity (RU) with acetylcholine receptor [1] of 125 RU.
As for KQYLK [5mer-593], the Binding affinity (RU) with acetylcholine receptor [2] was found to be 77 RU.
Take KKLLYR [6mer-1-70]: the Binding affinity (RU) with acetylcholine receptor [1] was found to be 139 RU.
The same measure, in the same setting: with RRSFLR [6mer-1-83] the figure was 146 RU.
Same read-out and setting: in the case of RRWRLK [6mer-1-92] it was 153 RU; in that of KRWICK [6mer-1-88], 121 RU.
For the molecule RVYTK [5mer-591], the Binding affinity (RU) in the assay with acetylcholine receptor [2] turned out to be 61 RU.
In the assay with acetylcholine receptor [1], KKQVYK [6mer-1-87] displayed a Binding affinity (RU) of 139 RU.
Still for that read-out and setting: with KKSISK [6mer-1-105] the figure was 141 RU; with KRLFCK [6mer-1-79], 137 RU.
Take KQYTK [5mer-590]: the Binding affinity (RU) with acetylcholine receptor [2] was found to be 81 RU.
Consider KKWVCR [6mer-1-112], for which the Binding affinity (RU) with acetylcholine receptor [1] stood at 148 RU.
On the same count and under the same terms, with KKRVSK [6mer-1-78] the figure was 145 RU.
Turning to KSIYR [5mer-298], in the assay with acetylcholine receptor [2], the Binding affinity (RU) came out at 75 RU.
For the molecule KLQQR [5mer-596], the Binding affinity (RU) with acetylcholine receptor [2] worked out at 56 RU.
With RKVRCK [6mer-1-116], the Binding affinity (RU) in the assay with acetylcholine receptor [1] was determined as 139 RU.
The same measure, in the same setting: with RKWISK [6mer-1-100] the figure was 146 RU.
For RGYYR [5mer-290], in the assay with acetylcholine receptor [2], the Binding affinity (RU) was 57 RU.
Regarding RSLRK [5mer-297], the Binding affinity (RU) in the assay with acetylcholine receptor [2] came to 81 RU.
In the case of RKVQQK [6mer-1-94], the Binding affinity (RU) with acetylcholine receptor [1] was found to be 142 RU.
The same measure, in the same setting: with KKQRSR [6mer-1-107] the figure was 131 RU; with KRGVQK [6mer-1-113], 148 RU; with RKVVYR [6mer-1-99], 136 RU.
Consider RRQYQK [6mer-1-75], for which the Binding affinity (RU) in the assay with acetylcholine receptor [1] stood at 139 RU.
Still for that read-out and setting: with RKQQCK [6mer-1-91] the figure was 131 RU; with KRGFSK [6mer-1-104], 121 RU.
RQYYR [5mer-293]: the Binding affinity (RU) with acetylcholine receptor [2] is 83 RU.
RKRICK [6mer-1-103]: in the assay with acetylcholine receptor [1], the Binding affinity (RU) is 122 RU.
Turning to KGLCR [5mer-589], in the assay with acetylcholine receptor [2], the Binding affinity (RU) turned out to be 58 RU.
For the molecule RRRYSR [6mer-1-120], the Binding affinity (RU) with acetylcholine receptor [1] is 124 RU.
The same measure, in the same setting: in the case of KKQQQR [6mer-1-73] it was 142 RU.
With RWFTR [5mer-291], in the assay with acetylcholine receptor [2], the Binding affinity (RU) was found to be 72 RU.
Consider KKWRQK [6mer-1-86], for which the Binding affinity (RU) in the assay with acetylcholine receptor [1] amounted to 142 RU.
Still for that read-out and setting: with KKRYLR [6mer-1-109] the figure was 148 RU.
As for KQYSR [5mer-594], the Binding affinity (RU) in the assay with acetylcholine receptor [2] turned out to be 50 RU.
As to KRGQLK [6mer-1-106], the Binding affinity (RU) with acetylcholine receptor [1] came to 149 RU.
Same read-out and setting: in the case of RRQITK [6mer-1-114] it was 153 RU; in that of KRGVRK [6mer-1-96], 125 RU.
On the same count and under the same terms, in the case of RKVRRR [6mer-1-69] it was 142 RU; in that of KKVYLR [6mer-1-97], 139 RU.
The molecule KQYYK [5mer-294] yielded a Binding affinity (RU) with acetylcholine receptor [2] of 50 RU.
With KRWIRR [6mer-1-93], in the assay with acetylcholine receptor [1], the Binding affinity (RU) amounted to 136 RU.
In the case of KWQQR [5mer-595], in the assay with acetylcholine receptor [2], the Binding affinity (RU) came to 58 RU.
For RRLLLR [6mer-1-108], the Binding affinity (RU) in the assay with acetylcholine receptor [1] was determined as 139 RU.
Still for that read-out and setting: in the case of KKVRLR [6mer-1-74] it was 142 RU.
As to RKQRCK [6mer-1-89], the Binding affinity (RU) with acetylcholine receptor [1] is 142 RU.
Still for that read-out and setting: with KRLQTR [6mer-1-119] the figure was 133 RU.
Still for that read-out and setting: with RRWQLR [6mer-1-81] the figure was 148 RU; with RKRQCK [6mer-1-85], 121 RU.
